Data on four molecules can be found in patent US20140242080A1 (Hoffmann-La Roche, published 2014).

Test [1] addresses T1, human MCSP expressed on tumor cells (Colo-38, WM266-4, A375, MV-3, HCT-116) (human, UniProt Q6UVK1 30-2322).
T1 construct: whole, on cells; also called huMCSP; MCSP on cells
Briefly: flow cytometry on Colo-38 cells, 50 nM. On the procedure: (§1) Binding of the different bispecific constructs to CD3 on Jurkat cells (ATCC #TIB-152), and the respective tumor antigen on target cells, was determined by FACS. Briefly, cells were harvested, counted and checked for viability. 0.15-0.2 million cells per well (in PBS containing 0.1% BSA; 90 μl) were plated in a round-bottom 96-well plate and incubated with the indicated concentration of the bispecific constructs and corresponding IgG controls (10 μl) for 30 min at 4° C. […] After the incubation, cells were centrifuged (5 min, 350×g), washed with 150 μl PBS containing 0.1% BSA, resuspended and incubated for further 30 min at 4° C. with 12 μl/well of a FITC- or PE-conjugated secondary antibody. Bound constructs were detected using a FACSCantoII (Software FACS Diva). The “(scFv)₂” molecule was detected using a FITC-conjugated anti-His antibody (Lucerna, #RHIS-45F-Z). For all other molecules, a FITC- or PE-conjugated AffiniPure F(ab′)2 Fragment goat anti-human IgG Fcγ Fragment Specific (Jackson Immuno Research Lab #109-096-098/working solution 1:20, or #109-116-170/working solution 1:80, respectively) was used. Cells were washed by addition of 120 μl/well PBS containing 0.1% BSA and centrifugation at 350×g for 5 min. A second washing step was performed with 150 μl/well PBS containing 0.1% BSA. […] EC50 values were calculated using the GraphPad Prism software.
(§2) In a first experiment, different bispecific constructs targeting human MCSP and human CD3 were analyzed by flow cytometry for binding to human CD3 expressed on Jurkat, human T cell leukaemia cells, or to human MCSP on Colo-38 human melanoma cells.

Test [2] has as its target T2, human CD3 expressed on Jurkat cells (human, UniProt P07766 23-207).
T2 construct: CD3 complex on Jurkat T cells; also called CD3 on Jurkat cells; huCD3
Put plainly: flow cytometry on Jurkat cells, 50 nM. On the procedure: as §1, §2

Test [3] concerns the target T1, human MCSP expressed on tumor cells …. Briefly: cell-based or functional assay.
Test [4] has the same target. Put plainly: cell-based or functional assay. The source holds these as a separate data set.
Test [5] addresses T2, human CD3 expressed on Jurkat cells. Briefly: flow cytometry on Jurkat cells. On the procedure:
as §1
As a control, the equivalent maximum concentration of the corresponding IgGs and the background staining due to the labeled 2ndary antibody (goat anti-human FITC-conjugated AffiniPure F(ab′)2 Fragment, FcγFragment-specific, Jackson Immuno Research Lab #109-096-098) were assessed as well.

For test [6], the target named is T1, human MCSP expressed on tumor cells …. Briefly: flow cytometry on WM266-4 cells. On the procedure:
as §1

The target in another test is T3, HuFcγRIIIa-V158-K6H6 (human, UniProt P08637 17-208, limits assumed).
T3 construct: His-tagged recombinant receptor captured by anti-Penta His antibody; also called human FcγRIIIa-V158; human FcγRIIIa
Put plainly: SPR Biacore T100, 25 C; receptor captured via anti-Penta His, construct as analyte; kinetic, one concentration (1000 nM). The procedure:
For analyzing interaction of different Fc-variants with human FcγRIIIa-V158 and murine FcγRIV direct coupling of around 6,500 resonance units (RU) of the anti-Penta His antibody (Qiagen) is performed on a CM5 chip at pH 5.0 using the standard amine coupling kit (Biacore, Freiburg/Germany). HuFcγRIIIa-V158-K6H6 and muFcγRIV-aviHis-biotin are captured for 60 s at 4 and 10 nM respectively.
Constructs with different Fc-mutations are passed through the flow cells for 120 s at a concentration of 1000 nM with a flow rate of 30 μl/min. The dissociation is monitored for 220 s. Bulk refractive index differences are corrected for by subtracting the response obtained in a reference flow cell. […] Affinity for human FcγRIIIa-V158 and murine FcγRIV was determined for wild-type Fc using a concentration range from 500-4000 nM.

T1 sequence (Q6UVK1 30-2322): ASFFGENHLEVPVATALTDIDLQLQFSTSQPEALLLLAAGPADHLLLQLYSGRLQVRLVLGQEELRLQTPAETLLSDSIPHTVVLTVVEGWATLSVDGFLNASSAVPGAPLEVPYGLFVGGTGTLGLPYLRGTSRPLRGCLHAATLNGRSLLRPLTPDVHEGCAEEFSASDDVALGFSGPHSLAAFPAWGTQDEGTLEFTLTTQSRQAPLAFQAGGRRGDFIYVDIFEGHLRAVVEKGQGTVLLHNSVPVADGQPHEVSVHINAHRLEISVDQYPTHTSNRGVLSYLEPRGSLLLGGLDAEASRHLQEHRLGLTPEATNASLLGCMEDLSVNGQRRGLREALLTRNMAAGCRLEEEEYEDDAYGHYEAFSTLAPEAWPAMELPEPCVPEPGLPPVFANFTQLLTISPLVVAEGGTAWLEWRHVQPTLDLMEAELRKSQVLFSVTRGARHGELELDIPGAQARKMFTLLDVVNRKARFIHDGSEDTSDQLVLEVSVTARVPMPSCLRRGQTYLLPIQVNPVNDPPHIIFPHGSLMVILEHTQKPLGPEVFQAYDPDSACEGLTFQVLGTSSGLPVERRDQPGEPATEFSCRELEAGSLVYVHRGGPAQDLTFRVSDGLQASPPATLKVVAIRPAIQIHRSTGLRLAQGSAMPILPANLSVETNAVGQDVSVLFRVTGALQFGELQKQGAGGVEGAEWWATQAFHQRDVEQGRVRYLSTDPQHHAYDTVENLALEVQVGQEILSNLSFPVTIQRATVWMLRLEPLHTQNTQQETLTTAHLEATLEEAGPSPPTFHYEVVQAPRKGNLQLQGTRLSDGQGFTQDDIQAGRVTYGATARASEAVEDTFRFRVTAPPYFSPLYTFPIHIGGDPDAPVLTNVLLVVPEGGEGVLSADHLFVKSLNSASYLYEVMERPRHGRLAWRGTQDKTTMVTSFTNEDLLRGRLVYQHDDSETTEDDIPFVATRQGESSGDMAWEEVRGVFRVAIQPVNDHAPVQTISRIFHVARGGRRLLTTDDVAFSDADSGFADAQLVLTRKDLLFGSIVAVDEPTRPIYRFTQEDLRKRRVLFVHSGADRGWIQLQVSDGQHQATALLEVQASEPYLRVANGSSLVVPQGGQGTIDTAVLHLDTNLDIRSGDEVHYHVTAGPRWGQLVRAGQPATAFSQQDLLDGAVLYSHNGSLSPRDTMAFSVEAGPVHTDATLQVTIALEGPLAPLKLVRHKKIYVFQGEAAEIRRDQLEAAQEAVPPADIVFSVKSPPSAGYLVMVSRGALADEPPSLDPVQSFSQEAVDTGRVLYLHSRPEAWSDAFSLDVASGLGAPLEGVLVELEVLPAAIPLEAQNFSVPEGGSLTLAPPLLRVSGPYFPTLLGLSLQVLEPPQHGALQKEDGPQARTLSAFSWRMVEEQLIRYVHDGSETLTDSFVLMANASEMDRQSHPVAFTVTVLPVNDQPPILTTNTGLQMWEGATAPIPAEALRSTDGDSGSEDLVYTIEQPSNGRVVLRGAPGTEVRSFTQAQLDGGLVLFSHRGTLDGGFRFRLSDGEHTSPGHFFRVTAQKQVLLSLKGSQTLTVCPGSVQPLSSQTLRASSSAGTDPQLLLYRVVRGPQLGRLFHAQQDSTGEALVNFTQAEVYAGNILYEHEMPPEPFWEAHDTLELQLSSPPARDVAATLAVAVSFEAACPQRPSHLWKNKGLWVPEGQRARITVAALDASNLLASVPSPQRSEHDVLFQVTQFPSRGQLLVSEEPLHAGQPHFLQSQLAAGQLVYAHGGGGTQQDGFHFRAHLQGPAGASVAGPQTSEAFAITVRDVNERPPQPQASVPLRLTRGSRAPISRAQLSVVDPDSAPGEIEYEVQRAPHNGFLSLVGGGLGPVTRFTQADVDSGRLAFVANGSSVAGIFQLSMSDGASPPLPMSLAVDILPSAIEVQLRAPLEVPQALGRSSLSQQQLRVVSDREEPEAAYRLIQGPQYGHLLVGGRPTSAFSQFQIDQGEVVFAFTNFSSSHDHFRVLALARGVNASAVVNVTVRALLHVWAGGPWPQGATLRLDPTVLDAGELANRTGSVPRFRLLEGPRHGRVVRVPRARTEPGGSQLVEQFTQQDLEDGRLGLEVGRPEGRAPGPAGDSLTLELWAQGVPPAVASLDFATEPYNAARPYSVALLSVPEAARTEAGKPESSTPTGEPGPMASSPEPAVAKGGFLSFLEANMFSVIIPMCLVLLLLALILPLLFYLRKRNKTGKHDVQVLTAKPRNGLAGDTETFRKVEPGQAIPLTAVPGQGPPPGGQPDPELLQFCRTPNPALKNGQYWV
T2 sequence (P07766 23-207 limits assumed): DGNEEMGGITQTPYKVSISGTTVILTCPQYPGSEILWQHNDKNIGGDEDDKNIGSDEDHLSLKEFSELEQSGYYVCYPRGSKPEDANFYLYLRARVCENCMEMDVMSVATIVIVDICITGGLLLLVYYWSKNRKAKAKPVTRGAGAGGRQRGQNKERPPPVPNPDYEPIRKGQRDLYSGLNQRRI
T3 sequence (P08637 17-208 F176V limits assumed): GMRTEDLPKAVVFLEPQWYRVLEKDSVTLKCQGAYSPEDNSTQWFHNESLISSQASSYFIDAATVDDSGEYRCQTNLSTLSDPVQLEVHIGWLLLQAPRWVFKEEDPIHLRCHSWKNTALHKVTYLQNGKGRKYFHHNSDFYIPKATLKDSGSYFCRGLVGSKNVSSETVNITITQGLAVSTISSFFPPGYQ

B1: “1+1 IgG scFab, one armed inverted” (anti-MCSP/anti-huCD3) (bispecific antibody)
chain 1: DIVLTQSPSSLSASLGDRVTISCSASQGIRNYLNWYQQRPDGTVKLLIYYTSSLHSGVPSRFSGSGSGTDYSLTISNLEPEDIATYYCQQYSKLPWTFGGGTKLEIKRTVAAPSVFIFPPSDEQLKSGTASVVCLLNNFYPREAKVQWKVDNALQSGNSQESVTEQDSKDSTYSLSSTLTLSKADYEKHKVYACEVTHQGLSSPVTKSFNRGECSGGGSGGGSEGGGSEGGGSEGGGSEGGGSGGGSGEVQLQESGPGLVKPSQSLSLTCSVTGYSITSGYYWNWIRQFPGNKLEWMGYITYDGSNNYNPSLKNRISITRDTSKNQFFLKLNSVTTEDTATYYCADFDYWGQGTTLTVSSASTKGPSVFPLAPSSKSTSGGTAALGCLVKDYFPEPVTVSWNSGALTSGVHTFPAVLQSSGLYSLSSVVTVPSSSLGTQTYICNVNHKPSNTKVDKKVEPKSCDGGGGSGGGGSGAQDKTHTCPPCPAPEAAGGPSVFLFPPKPKDTLMISRTPEVTCVVVDVSHEDPEVKFNWYVDGVEVHNAKTKPREEQYNSTYRVVSVLTVLHQDWLNGKEYKCKVSNKALPAPIEKTISKAKGQPREPQVCTLPPSRDELTKNQVSLSCAVKGFYPSDIAVEWESNGQPENNYKTTPPVLDSDGSFFLVSKLTVDKSRWQQGNVFSCSVMHEALHNHYTQKSLSLSPGK
chain 2: not shown
chain 3: not shown
In the case of B1, the binding result in test [1] and in test [2] was “binds” each time.

B2: 2 + 1 IgG Crossfab; VH/VL exchange (LC007/V9) (anti-MCSP/anti-huCD3) (bispecific antibody)
chain 1: not shown
chain 2: DIVLTQSPSSLSASLGDRVTISCSASQGIRNYLNWYQQRPDGTVKLLIYYTSSLHSGVPSRFSGSGSGTDYSLTISNLEPEDIATYYCQQYSKLPWTFGGGTKLEIKRTVAAPSVFIFPPSDEQLKSGTASVVCLLNNFYPREAKVQWKVDNALQSGNSQESVTEQDSKDSTYSLSSTLTLSKADYEKHKVYACEVTHQGLSSPVTKSFNRGEC
chain 3: DIQMTQSPSSLSASVGDRVTITCRASQDIRNYLNWYQQKPGKAPKLLIYYTSRLESGVPSRFSGSGSGTDYTLTISSLQPEDFATYYCQQGNTLPWTFGQGTKVEIKSSASTKGPSVFPLAPSSKSTSGGTAALGCLVKDYFPEPVTVSWNSGALTSGVHTFPAVLQSSGLYSLSSVVTVPSSSLGTQTYICNVNHKPSNTKVDKKVEPKSCGGGGSGGGGSEVQLQESGPGLVKPSQSLSLTCSVTGYSITSGYYWNWIRQFPGNKLEWMGYITYDGSNNYNPSLKNRISITRDTSKNQFFLKLNSVTTEDTATYYCADFDYWGQGTTLTVSSASTKGPSVFPLAPSSKSTSGGTAALGCLVKDYFPEPVTVSWNSGALTSGVHTFPAVLQSSGLYSLSSVVTVPSSSLGTQTYICNVNHKPSNTKVDKKVEPKSCDKTHTCPPCPAPEAAGGPSVFLFPPKPKDTLMISRTPEVTCVVVDVSHEDPEVKFNWYVDGVEVHNAKTKPREEQYNSTYRVVSVLTVLHQDWLNGKEYKCKVSNKALGAPIEKTISKAKGQPREPQVCTLPPSRDELTKNQVSLSCAVKGFYPSDIAVEWESNGQPENNYKTTPPVLDSDGSFFLVSKLTVDKSRWQQGNVFSCSVMHEALHNHYTQKSLSLSPGK
chain 4: EVQLVESGGGLVQPGGSLRLSCAASGYSFTGYTMNWVRQAPGKGLEWVALINPYKGVSTYNQKFKDRFTISVDKSKNTAYLQMNSLRAEDTAVYYCARSGYYGDSDWYFDVWGQGTLVTVSSASVAAPSVFIFPPSDEQLKSGTASVVCLLNNFYPREAKVQWKVDNALQSGNSQESVTEQDSKDSTYSLSSTLTLSKADYEKHKVYACEVTHQGLSSPVTKSFNRGEC
notes: vectors second heavy chain:light chain:first heavy chain-heavy chain Crossfab:light chain Crossfab 1:2:1:1; also called 2+1 IgG Crossfab (V9)
On to B2, for which, in test [3], the “EC50 of T cell-mediated killing (LDH release), MV-3 cells, human PBMCs E:T 10:1, 21 h” value came out at 0.0092 nM and the “EC50 of T cell-mediated killing (LDH release), WM266-4 cells, human PBMCs E:T 10:1, 21 h” value worked out at 0.0331 nM. Also, in test [4], the “EC50 [pM] of T cell-mediated killing (LDH release), MV-3 cells, human PBMCs E:T 10:1, about 24 h” value turned out to be 10 pM and the “EC50 [pM] of T cell-mediated killing (LDH release), WM266-4 cells, human PBMCs E:T 10:1, about 24 h” value turned out to be 12.4 pM. Also, the EC50 in test [5] was 1.66 nM. For the same molecule, the EC50 in test [6] came out at 0.95 nM.

B3: “1+1 IgG scFab, one armed” (anti-MCSP/anti-huCD3) (bispecific antibody)
chain 1: not shown
chain 2: not shown
chain 3: B2 chain 2
Turning to B3, the binding result in test [1] and in test [2] was “binds” throughout.

B4: “2+1 IgG scFab, LALA” (anti-MCSP/anti-huCD3) (bispecific antibody)
chain 1: B2 chain 2
chain 2: not shown
chain 3: EVQLQESGPGLVKPSQSLSLTCSVTGYSITSGYYWNWIRQFPGNKLEWMGYITYDGSNNYNPSLKNRISITRDTSKNQFFLKLNSVTTEDTATYYCADFDYWGQGTTLTVSSASTKGPSVFPLAPSSKSTSGGTAALGCLVKDYFPEPVTVSWNSGALTSGVHTFPAVLQSSGLYSLSSVVTVPSSSLGTQTYICNVNHKPSNTKVDKKVEPKSCDKTHTCPPCPAPEAAGGPSVFLFPPKPKDTLMISRTPEVTCVVVDVSHEDPEVKFNWYVDGVEVHNAKTKPREEQYNSTYRVVSVLTVLHQDWLNGKEYKCKVSNKALPAPIEKTISKAKGQPREPQVCTLPPSRDELTKNQVSLSCAVKGFYPSDIAVEWESNGQPENNYKTTPPVLDSDGSFFLVSKLTVDKSRWQQGNVFSCSVMHEALHNHYTQKSLSLSPGK
notes: Fc with L234A L235A; also called Fc-LALA; copies: 2 + 1 + 1
As to B4, the binding result in test [1] and in test [2] was “binds” throughout. The molecule further had a Kd with HuFcγRIIIa-V158-K6H6 of 2130 nM.
